By Kd is commonly meant the concentration at which binding is half-saturated.

The target in this series is T1, TLR7 T406S (Macaca mulatta, UniProt B3Y653 27-839, T406S).
T1 sequence: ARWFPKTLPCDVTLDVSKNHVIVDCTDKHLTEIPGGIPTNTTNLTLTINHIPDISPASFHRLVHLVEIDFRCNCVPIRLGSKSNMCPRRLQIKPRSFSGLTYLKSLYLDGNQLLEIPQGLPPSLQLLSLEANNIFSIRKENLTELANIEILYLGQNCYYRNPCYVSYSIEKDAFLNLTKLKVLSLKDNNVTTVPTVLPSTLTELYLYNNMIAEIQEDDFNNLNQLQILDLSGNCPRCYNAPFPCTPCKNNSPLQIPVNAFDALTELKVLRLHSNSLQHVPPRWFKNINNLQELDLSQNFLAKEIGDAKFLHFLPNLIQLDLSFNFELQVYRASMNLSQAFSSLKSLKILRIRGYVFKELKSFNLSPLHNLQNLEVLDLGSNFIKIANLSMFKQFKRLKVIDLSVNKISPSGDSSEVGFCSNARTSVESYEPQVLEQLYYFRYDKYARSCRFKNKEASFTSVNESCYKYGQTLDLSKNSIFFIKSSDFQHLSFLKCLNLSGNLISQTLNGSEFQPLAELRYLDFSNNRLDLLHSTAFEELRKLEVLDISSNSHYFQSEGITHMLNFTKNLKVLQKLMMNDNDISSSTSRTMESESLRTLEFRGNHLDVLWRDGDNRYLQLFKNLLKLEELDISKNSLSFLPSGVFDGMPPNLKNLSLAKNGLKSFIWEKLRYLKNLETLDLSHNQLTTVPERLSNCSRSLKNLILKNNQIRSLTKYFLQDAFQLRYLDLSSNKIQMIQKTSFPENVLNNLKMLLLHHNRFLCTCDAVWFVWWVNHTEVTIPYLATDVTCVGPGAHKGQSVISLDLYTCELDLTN
The experiment in a line: SPR; mean computed from runs 0.5±0.09, 0.6±0.1, 0.6±0.1; SPR with recombinant TLR7/TLR8; buffer, pH and temperature not in the material. Particulars: protein: recombinant; chain copies: 2; single-stranded. On the technique in general: SPR reads the build-up and loss of mass on a sensor chip optically.

GUC (XNA, 2'-OMe G1, RNA U2 C3; phosphorothioate linkages) [mGrUrC PS]: the Kd amounted to 570 nM.

(Values after publication PMC13043311, “2′-O-Methyl-guanosine RNA fragments antagonize TLR7 and TLR8 to limit autoimmunity”.)
